The labels stand for the following.
B1: CPEB3 Ribozyme (parent)
chain: GGGGGCCACAGCAGAAGCGUUCACGUCGCGGCCCCUGUCAGAUUCUGGUGAAUCUGCGAAUUCUGCUGU

The variants in this data set derive from B1. As to the kind of experiment: self-cleavage, relative activity (ratio to wild type); higher = more cleavage; co-transcriptional.
As for G5U C34U, the self-cleavage turned out to be 0.111.
Consider C6G U53G, for which the self-cleavage stood at 0.136.
The figure for C6U U67C is 1.02; for C6U U67A it is 0.995.
As for C6U C54U, the self-cleavage is 1.03.
Then G5U U53C, with 0.0878; and G5U U53A, with 0.116.
The figure for C6G U38G is 0.0812; for C6A C34A it is 0.153; for C6A C34G it is 0.144.
The figure for C7A A51U is 0.402; for C6G G28A it is 0.0625.
Consider C6G G28C, for which the self-cleavage is 0.0369.
With G5C U38A, the self-cleavage was 0.145.
The figure for G5C U38C is 0.12.
Consider G5U A13C, for which the self-cleavage came out at 0.0841.
Consider C7A C29A, for which the self-cleavage was 0.0674.
Consider C6A A59C, for which the self-cleavage amounted to 0.221.
Take C6A A59U: the self-cleavage is 0.202.
Consider C6A U67G, for which the self-cleavage came to 0.835.
C6U G14C: the self-cleavage came out at 0.458.
On to C6U G14U, for which the self-cleavage was 0.616.
Then C6A C22G, with 0.155; and G5C G17U, with 0.118.
For C6G G14U, the self-cleavage was determined as 0.121.
In the case of G5C G48C, the self-cleavage came out at 0.245.
Regarding G5C G48U, the self-cleavage worked out at 0.194.
Then C6G A13U, with 0.123; and C6G A13C, with 0.163; and C6A G58C, with 0.567.
Regarding G5C C29G, the self-cleavage is 0.113.
Then G5C U43A, with 0.183; and C6G G31C, with 0.93.
On to C6A C54A, for which the self-cleavage was found to be 0.282.
As for C6A C54G, the self-cleavage was found to be 0.246.
In the case of C6G U46C, the self-cleavage came to 0.41.
On to C6G U46A, for which the self-cleavage was 0.377.
The figure for C6G U46G is 0.386; for C6G A8G it is 0.358.
For the variant G5C C32A, the self-cleavage turned out to be 0.805.
As for G5C C32U, the self-cleavage turned out to be 0.703.
Then G5C U20A, with 0.0824.
Then G5C U20C, with 0.0972.
The figure for G5U G65C is 0.205; for C6G U43G it is 0.126.
C6G U43A: the self-cleavage came out at 0.172.
Turning to G5U U36C, the self-cleavage turned out to be 0.21.
Then G5C G14A, with 0.0874; and G5C G14C, with 0.146.
Then C6A C12U, with 0.581; and G5U A8U, with 0.151; and C6U G41U, with 0.817.
The figure for C6A C35G is 0.134; for C6A C35U it is 0.27.
As to C6U C29U, the self-cleavage was 0.405.
As to C6U C29A, the self-cleavage was 0.493.
Then C6U U21A, with 0.997; and C6A G56A, with 0.423.
Then C6A G56U, with 0.44; and G5U U69A, with 0.503.
With G5U U69C, the self-cleavage amounted to 0.749.
With G5U C29U, the self-cleavage is 0.103.
As for C6G U64C, the self-cleavage was 0.166.
The figure for C6G U64G is 0.276.
As to G5U A16C, the self-cleavage stood at 0.042.
Then C6A U38A, with 0.3; and G5U G37A, with 0.11.
The figure for G5C G19C is 0.0995.
With C6G A60C, the self-cleavage was 0.0823.
Then C7A C45A, with 0.485; and C7A C45U, with 0.566.
Turning to C6A C63G, the self-cleavage worked out at 0.205.
Turning to C6A C63U, the self-cleavage turned out to be 0.505.
Turning to C6A U43A, the self-cleavage turned out to be 0.294.
Then C6A U43C, with 0.412; and C6A G17A, with 0.131; and C7A A52G, with 0.515.
Turning to G5U C9G, the self-cleavage amounted to 0.772.
The figure for C6G C54A is 0.162.
The figure for C6A A52C is 0.519; for C7A A59C it is 0.239; for C6A G41U it is 0.225.
Then C6A G41C, with 0.192; and C6U U49G, with 0.956; and C6U U49A, with 1.
Consider C7A C35A, for which the self-cleavage came out at 0.126.
Then C6U G48U, with 1; and C7A A10U, with 0.912.
The figure for C6U G50U is 0.979; for C6U G50C it is 1.02; for G5U A15U it is 0.092.
Then G5U A15G, with 0.19.
Regarding G5U A15C, the self-cleavage was found to be 0.0532.
Consider C6A A15G, for which the self-cleavage was 0.467.
Then C6A A15U, with 0.176; and G5U C57G, with 0.115; and G5U C57U, with 0.0743.
As to G5U C39A, the self-cleavage was found to be 0.0897.
On to G5U C39G, for which the self-cleavage is 0.0932.
For G5C U53C, the self-cleavage was found to be 0.151.
Then G5C U53G, with 0.212.
The figure for G5C U53A is 0.175; for C6A G30C it is 0.209.
As for C7A C9A, the self-cleavage was determined as 0.97.
For C6U C7U, the self-cleavage worked out at 0.86.
The figure for C6G C39U is 0.168; for C6G C39A it is 0.173; for G5C U69C it is 0.568.
With C6U G19U, the self-cleavage was determined as 0.298.
With G5C G56C, the self-cleavage amounted to 0.166.
The figure for G5C G56U is 0.131; for C6U C34G it is 0.188; for C6G G47U it is 0.463.
The figure for G5U G56C is 0.163.
The figure for G5U G56U is 0.104; for G5U G56A it is 0.137.
As for C6A U49A, the self-cleavage worked out at 0.641.
Consider G5C G25A, for which the self-cleavage was determined as 0.0822.
Consider C7A A8C, for which the self-cleavage amounted to 0.769.
In the case of C6U C24G, the self-cleavage amounted to 0.345.
For C6U A23G, the self-cleavage came to 1.03.
For the variant G5U A40G, the self-cleavage came out at 0.171.
For G5U A40U, the self-cleavage worked out at 0.132.
The figure for G5C U26C is 0.109; for C6G C35G it is 0.0784; for C7A C18G it is 0.159.
Turning to C7A C18U, the self-cleavage is 0.224.
In the case of C6U G58U, the self-cleavage worked out at 1.01.
The figure for G5U G30A is 0.0886; for G5U U43A it is 0.111; for G5U U43C it is 0.133.
The figure for C6U A10G is 0.908; for G5U C54A it is 0.104; for G5U C54G it is 0.106.
The figure for C6G G48A is 0.493.
On to G5C G28A, for which the self-cleavage was determined as 0.134.
The figure for C6G G11A is 0.177; for C6G G11U it is 0.185.
As for C6A U20G, the self-cleavage was determined as 0.161.
The figure for C6G U55C is 0.284; for C6G U55A it is 0.26.
Regarding C6G U55G, the self-cleavage amounted to 0.144.
Then C6G C22A, with 0.0965; and C6G C22G, with 0.0649; and C6G C22U, with 0.106.
The figure for C6G C9U is 0.489.
Then C6U U69C, with 1.06.
With C7A A42C, the self-cleavage was found to be 0.322.
As to C7A A42U, the self-cleavage amounted to 0.349.
As to C7A A42G, the self-cleavage worked out at 0.471.
On to G5U C6A, for which the self-cleavage was 0.0825.
Turning to G5U C6G, the self-cleavage was determined as 0.115.
G5U G41A: the self-cleavage worked out at 0.12.
Then C6U C32A, with 0.177; and G5U C35A, with 0.0833; and G5U C35U, with 0.0952.
The figure for C6A A42U is 0.374.
As to C6U G11A, the self-cleavage stood at 0.861.
Then C6U U36C, with 0.969; and C6U C27U, with 0.256; and G5C C35U, with 0.162.
Take G5C C35G: the self-cleavage is 0.121.
With C6G G30U, the self-cleavage was determined as 0.045.
With G5C G11C, the self-cleavage came out at 0.147.
Turning to G5C G11A, the self-cleavage was 0.164.
As for C6G C57G, the self-cleavage was determined as 0.0373.
Then C7A C12U, with 0.592.

(Values after the RNAGym collection of RNA variant scans (doi:10.7554/elife.80360).)
